Results taken from the nanobody polyreactivity screen of Harvey et al. (2022).

Test: yeast display, Sf9 membrane polyspecificity reagent, FACS + sequencing; frameworks hold sequencing errors
Outline: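 In a synthetic yeast display library (Saccharomyces cerevisiae BJ5465), nanobody expression was induced with galactose for 36–48 hours. FACS gates were set low and high (top ~1%) using anti-HA fluorescence for expression and streptavidin fluorescence for binding of the Sf9 membrane reagent. Each polyreactivity label is drawn from the gate of origin.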

Question: Which “polyreactivity (PSR sort gate)” value does the source give for “QVQLVESGGGLVQAGGSLRLSCAASGSTFYGNAMVWYIQAPGKERELVAAIRWRGGRTYYADSVKGRFTNSRDNAKYTVYLKLNSLIPEDTAVYDCNALPGVSDTQYDRVGYWGQGTQVTVSS” here?
Answer: high polyreactivity

Question: With “QVQLVESGGGLVHAGGSLLLSCAASGSTLRPNAMGWYRKAPGKERELVDAISSGGSTYYADSVKGRFTISRDNAKYSVYLQMNSLKPEDTAVYSCAAASERSGYYYWGQGTQVTVSS” as the sequence, how does the “polyreactivity (PSR sort gate)” value read?
Answer: high polyreactivity

Question: Which “polyreactivity (PSR sort gate)” value does the source give for “QVQLVESGGGLVQAGGRLRLSFAASGITFYVYTMGWYRQAPGKERELVPAISTTGSTNYADSVKGRFTISRDNAKNTVYLQMNSLKPEDTAVYYCNAKYYWLVFEYDYWGQGTQVTVSS” here?
Answer: high polyreactivity

Question: With “QVQLVESGGGLVQAGGSLRLSCAASGRTFSTNDMGWYRQAPGKERELVAAIDFDSDSTYYADSVKGRFTISRDNAKNTVYLQMNSMKPEDTAVYYCAAQYFSYGESYEYWGQGTQVTVSS” as the sequence, how does the “polyreactivity (PSR sort gate)” value read?
Answer: low polyreactivity

Question: With “QVQLVDSGGGLVQAGGSLPLSCAASGSIFSFYAMGWYRQAPGKERELVAAISGNGGRTYYADSVKGRFTISRDNAKNSVYLQMNSLKPEDTAVYYCAAYNSPRLCYWGQGTQVTVSS” as the sequence, how does the “polyreactivity (PSR sort gate)” value read?
Answer: high polyreactivity

Question: For “QVQLVESGGGLVKAGGSLRLSCSASGSTFRSNAMGWYRQAPGKERELVAGISSGGGTYYADSVKGRFTISRDNAKNTVYLQMNSLKPEDTAVYYCAKVVYFGWSVQYYYWGQGTQVTVSS”, which “polyreactivity (PSR sort gate)” value is on record?
Answer: low polyreactivity

Question: With “QVQLVESGGGLVQAGGSLSLICAASGRNFYTYAMGWYRQAPGKERELVAAISWSGGSTYYADSVKGRFTISRDNAKNTVYLQMNSLNPEDTAVYYCNARFRFGWPGYDYWGQGTQVTVSS” as the sequence, how does the “polyreactivity (PSR sort gate)” value read?
Answer: high polyreactivity

Question: Which “polyreactivity (PSR sort gate)” value does the source give for “QVQLVESAGGLVQAGGSLRLSCAASGRIFSIYAMGWSRQAPGKERELVAAIRRGGSTSYADSVKGRFTISRDNAKNTVYLQMNSLKPEDTAVYYCAARLRYLGYDFWGQGTQVTVSS” here?
Answer: high polyreactivity

Question: Which “polyreactivity (PSR sort gate)” value does the source give for “QLQLVESGGGLVQAGGSLRFSCAASGFTFVWYVRGWYRQAPVKARELVASSTSTGSTNYADSVKGRYTISRDNAKNTVYLQMNSLKPEDTAVYYCNARGSYKRTRYGKWGQGTQVTVSS” here?
Answer: high polyreactivity

Question: For “QVQLVESGGGLVQAGGSLRLSCAASGSIFYLYAMGWYRQAPGKERELVASISWGDSSTYYADSVKGRFTISRDNAKNTVYLQMNSLKPEDTAVYYCAADEYRQYALYDYWGQGTQVTVSS”, which “polyreactivity (PSR sort gate)” value is on record?
Answer: low polyreactivity

Question: With “QVQLVESGGRLVQAGCSLRLSCAASGFTFYQNAMGWYRQAPGKVRELVAAISVSGDSTYYADSVKGRLTISRDNAKNTVYLQMNSLKPEDTAVYYCTEYFYYLSLYYYYWFNYDYWGHGTQVTVSS” as the sequence, how does the “polyreactivity (PSR sort gate)” value read?
Answer: low polyreactivity

Question: For “QVQLVESGGGLVQAGGSLRLSCAASVITFDVYAMGWYRPAPGKERELVAAISSVGGTYYADSVKGRFTISRDNAKNTVYLQMISLKPEDTAVYYCNTDGYVGSIRSGLYIYDYWGQGTQVTVSS”, which “polyreactivity (PSR sort gate)” value is on record?
Answer: low polyreactivity

Question: With “QVQLVESGGGLVQAGGSLRLSCAASGNTFYFYAMGWYRQAPGKERELVAAIRWSGSRTYADSVKGRFTISRDNAKNTVYLQMNSLKPEDTAVYYCNADSIWGYDYWGQGTQVTVSS” as the sequence, how does the “polyreactivity (PSR sort gate)” value read?
Answer: high polyreactivity

Question: With “QVQLVDSGGGLVQAGGSLRLSCAASGFTIYANAMGWYRQAPGKERELVAAITSSSGRTYYADSVKGRFTISRDNAKNTVYLQMNSLIPEETAVYYCAARWSPYDYWGQGTQVTVSS” as the sequence, how does the “polyreactivity (PSR sort gate)” value read?
Answer: low polyreactivity

Question: Which “polyreactivity (PSR sort gate)” value does the source give for “QVQLVESGGGLVQAGGSLRLSCAASGSIFTRNAMGWYRQAPGKERELVATITSNDGSTNYADSVKGRFTISRDNAKNTVYLQMNSLKPEDTAVYYCNRSYGVYSEFDYWGQGTQVTVSS” here?
Answer: low polyreactivity

Question: Which “polyreactivity (PSR sort gate)” value does the source give for “QVQLVESGGGLVQAGGSLRLSCSAYGRIFRGYAMGGYRQAPGKERELVASISGGDSTYADSVQGRFTISRDNAKNTVYLQMNSLKPEDTAVYYCADDNEWPRYDYWGQGTQVTVSS” here?
Answer: low polyreactivity

Question: With “QVQLVESGGGLVQAGGSLRLSCAASGSNFSRYAMGWYTQAPGKERELVAAISKSGGSTYYADSVKGRFTISRDNAKNTVYLEMNSLIPEDTAVYYCNARDSPVQRRAEPYGYWGQGTQVTVSS” as the sequence, how does the “polyreactivity (PSR sort gate)” value read?
Answer: high polyreactivity

Question: For “QVQLVESGGGLVQAGGSLRLSCAASGSTFFSNTMGWYRQAPGIERELVAAITSRGGRTYYADSVKGRFTISRDNAKNSVYLQMNSLKPEDTAVYYCAARFVLHGVYLKFYWGQGTQLTVSS”, which “polyreactivity (PSR sort gate)” value is on record?
Answer: high polyreactivity

Question: For “QVQLVESGGGLVQAGGSLRLSCAASGRIFVSYVMGWYRPAPGKEREFVAAIRRSGSSTYYADSVKGRFTISRDNAKNTVYLQINRLKPEDTAVYYCAAYQRSRTLRRYDYWGQGTQVTVSS”, which “polyreactivity (PSR sort gate)” value is on record?
Answer: high polyreactivity

Question: Which “polyreactivity (PSR sort gate)” value does the source give for “QVQLVESGGGLVQAGGSLRLSCAASGGTFTTNAMGWYRQAPGKERELVAAITSSGVRTYYADSVKGRFTISRDNAKNTVYLQMNSLKPEDTAVYYCNAVTRYVRLTDDDYWGQGTQVTVSS” here?
Answer: high polyreactivity

Question: With “QVQLVESGGGLDQAGGSLRLSCAASGITFFNYAMGWYRQAPGKEREFVAGIDSSGGSTSYADSVKGRFTISRDNAKNTVYLQMNSLKPEDTAVYYCAADRTGSHFDYWGQGTQVTVSS” as the sequence, how does the “polyreactivity (PSR sort gate)” value read?
Answer: low polyreactivity

Question: Which “polyreactivity (PSR sort gate)” value does the source give for “LVQLVESGGGLVQAGGSLRLSFAASGLIFGRYAMGWYTQAPGKERELVAAISSSGVRTYYADSVKGRFTLSRDNAKNTVYLQLNSLKPEDTAVYYCAAAYWSSPEDTVIKRYYWGQGTQVTVSS” here?
Answer: high polyreactivity
